Tested on: Escherichia coli TOP10
Test: shrunken log2 fold change of peptide-encoding DNA abundance (4.5 h post-induction vs induction); higher = less antimicrobial activity (less host growth inhibition)
Details: time post-induction: 4.5 h; library: site-saturation at positions 5, 18, 19, 20
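Further: peptides expressed intracellularly from a pBAD plasmid library in pooled LB shake-flask culture, induced with 0.3% L-arabinose, DNA abundance read by NGS, three biological replicates, DESeq2 with apeglm shrinkage.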

Sequence | shrunken log2 fold change
RRIRIRPPRLPRPRPRPHTLPRP | -0.436
RRIRIRPPRLPRPRPRPHWHPRP | -0.153
RRIRIRPPRLPRPRPRPIDNPRP | -0.0769
RRIRIRPPRLPRPRPRPIEDPRP | 0.0806
RRIRIRPPRLPRPRPRPIELPRP | 0.0658
RRIRIRPPRLPRPRPRPIEQPRP | -0.489
RRIRIRPPRLPRPRPRPIFKPRP | -0.226
RRIRIRPPRLPRPRPRPIGHPRP | -0.0672
RRIRIRPPRLPRPRPRPIGKPRP | -0.13
RRIRIRPPRLPRPRPRPIGTPRP | -0.792
RRIRIRPPRLPRPRPRPIHQPRP | -1.14
RRIRIRPPRLPRPRPRPIIHPRP | -0.667
RRIRIRPPRLPRPRPRPIIVPRP | -0.666
RRIRIRPPRLPRPRPRPIKMPRP | -0.177
RRIRIRPPRLPRPRPRPILRPRP | -0.484
RRIRIRPPRLPRPRPRPIMEPRP | -0.216
RRIRIRPPRLPRPRPRPINDPRP | -0.657
RRIRIRPPRLPRPRPRPINKPRP | -1.11
RRIRIRPPRLPRPRPRPIPQPRP | -0.14
RRIRIRPPRLPRPRPRPIRHPRP | -0.0741
RRIRIRPPRLPRPRPRPITDPRP | -0.0192
RRIRIRPPRLPRPRPRPIVPPRP | -0.407
RRIRIRPPRLPRPRPRPIWGPRP | -0.0934
RRIRIRPPRLPRPRPRPIYCPRP | -0.0326
RRIRIRPPRLPRPRPRPKAGPRP | 0.0458

Sequence | shrunken log2 fold change
RRIRIRPPRLPRPRPRPKANPRP | -0.103
RRIRIRPPRLPRPRPRPKAWPRP | 0.0719
RRIRIRPPRLPRPRPRPKCIPRP | -0.399
RRIRIRPPRLPRPRPRPKCPPRP | -0.263
RRIRIRPPRLPRPRPRPKCQPRP | -0.00871
RRIRIRPPRLPRPRPRPKDGPRP | -0.105
RRIRIRPPRLPRPRPRPKGTPRP | 0.0146
RRIRIRPPRLPRPRPRPKHDPRP | -0.463
RRIRIRPPRLPRPRPRPKHYPRP | -0.44
RRIRIRPPRLPRPRPRPKKEPRP | -0.438
RRIRIRPPRLPRPRPRPKKSPRP | -0.202
RRIRIRPPRLPRPRPRPKKVPRP | -0.291
RRIRIRPPRLPRPRPRPKLGPRP | -0.217
RRIRIRPPRLPRPRPRPKLLPRP | 0.0419
RRIRIRPPRLPRPRPRPKLVPRP | 0.116
RRIRIRPPRLPRPRPRPKMPPRP | 0.0103
RRIRIRPPRLPRPRPRPKQPPRP | 0.102
RRIRIRPPRLPRPRPRPKREPRP | 0.0342
RRIRIRPPRLPRPRPRPKSKPRP | -0.298
RRIRIRPPRLPRPRPRPKSWPRP | 0.327
RRIRIRPPRLPRPRPRPKTAPRP | -0.143
RRIRIRPPRLPRPRPRPKTMPRP | -0.198
RRIRIRPPRLPRPRPRPKTNPRP | -0.334
RRIRIRPPRLPRPRPRPKVHPRP | -0.094
RRIRIRPPRLPRPRPRPKWCPRP | -0.317

Sequence | shrunken log2 fold change
RRIRIRPPRLPRPRPRPLAFPRP | -0.302
RRIRIRPPRLPRPRPRPLAMPRP | -0.159
RRIRIRPPRLPRPRPRPLAQPRP | -0.116
RRIRIRPPRLPRPRPRPLCCPRP | -0.317
RRIRIRPPRLPRPRPRPLCPPRP | -0.502
RRIRIRPPRLPRPRPRPLDLPRP | -0.415
RRIRIRPPRLPRPRPRPLDNPRP | 0.0097
RRIRIRPPRLPRPRPRPLEFPRP | -0.196
RRIRIRPPRLPRPRPRPLFGPRP | -0.102
RRIRIRPPRLPRPRPRPLFQPRP | -0.394
RRIRIRPPRLPRPRPRPLGFPRP | -0.393
RRIRIRPPRLPRPRPRPLGGPRP | 0.00908
RRIRIRPPRLPRPRPRPLHAPRP | 0.00821
RRIRIRPPRLPRPRPRPLHLPRP | -1.08
RRIRIRPPRLPRPRPRPLIAPRP | -0.24
RRIRIRPPRLPRPRPRPLLAPRP | 0.185
RRIRIRPPRLPRPRPRPLLDPRP | -0.444
RRIRIRPPRLPRPRPRPLMAPRP | -0.408
RRIRIRPPRLPRPRPRPLMQPRP | -0.564
RRIRIRPPRLPRPRPRPLPHPRP | -0.0305
RRIRIRPPRLPRPRPRPLPIPRP | -0.0341
RRIRIRPPRLPRPRPRPLPLPRP | 0.0472
RRIRIRPPRLPRPRPRPLRLPRP | 0.281
RRIRIRPPRLPRPRPRPLSAPRP | -0.112
RRIRIRPPRLPRPRPRPLSKPRP | -0.901
